In doi:10.1101/2025.02.24.639830:

System: LeuO (Escherichia coli (ASKA library overexpression strain))
Experiment: EMSA

Substance: leuLABCD promoter region EMSA probe
- K half: 25 nM
